Measured values taken from patent US20150203579A1 (Regeneron, published 2015).

T1: recombinant cynomolgus monkey PD-1 expressed with a C-terminal myc-myc-hexahistidine tag (cynomolgus monkey (Macaca fascicularis))
T1 construct: monomeric; also called MfPD-1-MMH
T1 chain: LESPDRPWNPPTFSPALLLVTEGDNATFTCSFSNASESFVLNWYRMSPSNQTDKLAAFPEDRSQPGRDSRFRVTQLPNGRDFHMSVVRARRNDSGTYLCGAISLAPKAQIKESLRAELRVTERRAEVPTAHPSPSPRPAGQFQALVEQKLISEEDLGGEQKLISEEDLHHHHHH


Columns and labels:
[1] = molecular target: T2, recombinant human PD-1 expressed with a C-terminal myc-myc-hexahistidine tag (human); experiment: SPR (Biacore), mAb captured, hPD-1-MMH injected, 25 C;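 further: rate constants obtained by fitting sensorgrams to a 1:1 binding model, KD derived as kd/ka and half-life as ln2/(60·kd) in minutes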
T2 construct: also called hPD-1-MMH; human PD-1-MMH

[2] = molecular target: T3, recombinant human PD-1 expressed with a C-terminal myc-myc-hexahistidine tag (human); experiment: SPR, mAb captured, 37C;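 further: rate constants from fitting sensorgrams to a 1:1 binding model, KD derived as kd divided by ka and half-life as ln2/(60·kd)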
T3 construct: monomeric; also called hPD-1-MMH; human PD-1-MMH

[3] = molecular target: T4, human PD-1 dimer (human PD-1-mFc or human PD-1-hFc) (human, UniProt Q15116 25-170); experiment: SPR, mAb captured, 25C;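 further: surface plasmon resonance on Biacore, PD-1 flowed over captured anti-PD-1 antibodies, rate constants from a 1:1 binding model fit, KD taken as kd/ka and t½ as ln2/(60·kd)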
T4 construct: also called hPD-1-mFc; hPD1-hFc

[4] = molecular target: T1, recombinant cynomolgus monkey PD-1 …; experiment: SPR, mAb captured, 25C;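 further: rates from fitting Biacore data for PD-1 binding to anti-PD-1 antibodies with a 1:1 model, KD computed as koff/kon and t½ as ln2/(60·koff)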
[5] = molecular target: T4, human PD-1 dimer (human PD-1-mFc or …); experiment: SPR, mAb captured, 37C
[6] = molecular target: T1, recombinant cynomolgus monkey PD-1 …; experiment: SPR, mAb captured, 37C

T4 sequence (Q15116 25-170 C93S): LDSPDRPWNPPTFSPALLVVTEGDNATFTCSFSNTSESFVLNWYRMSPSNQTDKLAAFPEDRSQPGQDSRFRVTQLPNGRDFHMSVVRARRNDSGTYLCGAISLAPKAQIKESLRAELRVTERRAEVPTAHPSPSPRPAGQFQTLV

Kd [1] | koff [1] | kon [1] | t½ [1] | Binder | also measured
14.5 nM | 0.00149 s⁻¹ | 102000 M⁻¹ s⁻¹ | 7.8 min | H4xH9034P (antibody, V domains shown, Human IgG4 Fc with 2 or more amino acid changes as in US20100331527 (H4xH prefix); also called H4xH9034P2) VH: EVQLVESGGGVVRPGGSLRLSCTASGFTFDDYGMSWVRQAPGKGLEWISGIGWTGGRSSYADSVRGRFTISRDNAKNSLYLQMNSLGAEDTALYYCARDRQWLVQWYFDYWGQGTLVTVSS VL: not shown | 
10.2 nM | 0.0012 s⁻¹ | 117000 M⁻¹ s⁻¹ | 10 min | H4xH9135P2 (antibody, human IgG4, V domains shown, H4xH: modified human IgG4 Fc) VH: EVQLVESGGSVVRPGGSLRLSCVVSGFTFEDYGLSWVRQIPGKGLEWVSGISWTGGNTGYADSVKGRFTISRDNAKNSLYLQMNSLRAEDTALYHCTRDRQWLMQWYFDYWGQGTLVTVSS VL: not shown | 
14.5 nM | 0.000719 s⁻¹ | 49500 M⁻¹ s⁻¹ | 16 min | H4xH9128P2 (antibody, human IgG4, V domains shown, H4xH: modified human IgG4 Fc) VH: QVQLQESGPGLVKPSETLSLTCTVSGGSISSYHWNWIRQSPGKGLEWIGYIYYIGSTDYNPSLESRVTISVDTSKNQFSLKLSSVTAADTAVYYCARVPVGATGASDVWGQGTMVTVSS VL: not shown | 
 |  |  |  | H2aM7796N (antibody, mouse IgG2a, V domains shown, Human variable regions, mouse IgG2a Fc; also called H2M7796N) VH: QVQLVESGGGVVQPGRSLRLSCAASGFTFSSYGMHWVRQAPGKGLEWVAIIWSDGDSEYNLDSVKGRFTISRDNSKNTLYLQMNSLRVEDSAVYYCARDRDLEDIWGQGTMVTVSS VL: DIQMTQSPSSLSASVGDRVTITCRASQGIRNDLGWYQQKPGKAPKRLIYAASNLQSGVPSRFSGSGSGTEFTLTISSLQPEDFATYYCLQHNSYPLTFGGGTKVEIK | Kd [2]: 1510 nM; koff [2]: 0.0165 s⁻¹; kon [2]: 10900 M⁻¹ s⁻¹; t½ [2]: 0.7 min; Kd [3]: 3.32 nM; koff [3]: 8.67e-05 s⁻¹; kon [3]: 26100 M⁻¹ s⁻¹; t½ [3]: 133 min; binding result [4]: no binding (tested: up to 200 nM); Kd [5]: 19.6 nM; koff [5]: 0.000434 s⁻¹; kon [5]: 22100 M⁻¹ s⁻¹; t½ [5]: 27 min
 |  |  |  | H4xH8992P (antibody, V domains shown, Human IgG4 Fc with 2 or more amino acid changes (H4xH)) VH: EVQLVESGGGLVQPGRSLRLSCVASGFALHDYAMHWVRQVPGKGLEWVSSISWNSGVIGYADSLKGRFTISRDNAKNSLYLQMNSLRAEDTALYYCAKGSGSYYVSWFDPWGQGTLVTVSS VL: not shown | Kd [3]: 0.68 nM; t½ [3]: 72 min; Kd [4]: 200 nM; t½ [4]: 0.3 min; Kd [5]: 2.91 nM; t½ [5]: 11 min
141 nM |  |  | 0.5 min | H4xH8992P (antibody, human IgG4, V domains shown, H4xH: modified human IgG4 Fc) VH: EVQLVESGGGLVQPGRSLRLSCVASGFALHDYAMHWVRQVPGKGLEWVSSISWNSGVIGYADSLKGRFTISRDNAKNSLYLQMNSLRAEDTALYYCAKGSGSYYVSWFDPWGQGTLVTVSS VL: not shown | 
38.5 nM | 0.00134 s⁻¹ | 34700 M⁻¹ s⁻¹ | 8.6 min | H4xH9145P2 (antibody, human IgG4, V domains shown, H4xH: modified human IgG4 Fc) VH: QVQLVESGGGVVQPGRSLRLSCSASGFTFSAYAMHWVRQAPGKGLEWVAAISYGGSDKYYADSVKGRFTISRDNSKNTLYLQMNSLRTDDTAVYYCAKSAHWNFFFDYWGQGTLVTVSS VL: not shown | 
161 nM | 0.00947 s⁻¹ | 58800 M⁻¹ s⁻¹ | 1.2 min | H1M7800N (antibody, mouse IgG1, V domains shown, Human variable domains, mouse IgG1 Fc) VH: EVQLVESGGGLVQPGGSLRLSCAASGFTVSNNYMSWVRQAPGKGLEWVSVIYSGGFTYYTDSVKGRFTISRHNSKNTLYLQMNSLRAEDTAVYYCARYYYDTSDYWTFFDYWGQGTLVTVSS VL: EIVMTQSPATLSVSPGERATLSCRASQSVSSNLAWYQQKPGQAPRLLIYGASTRATGIPARFSGSGSGTEFTLTISSLQSGDFAVYYCQQYNNWPLTFGGGTKVEIN | 
30.1 nM | 0.000998 s⁻¹ | 33200 M⁻¹ s⁻¹ | 12 min | H4xH9120P2 (antibody, human IgG4, V domains shown, H4xH: modified human IgG4 Fc) VH: QVQLVQSGAEVKRPGASVKVSCKASGYTFTSFYMYWVRQAPGQGLEWMGIINPSDGSTSNAQKFQGRVTMTRDTSTSTVYMELSSLRSEDTAVYYCARRVAGDIFDIWGQGTMVTVSS VL: not shown | 
38.5 nM | 0.000359 s⁻¹ | 9320 M⁻¹ s⁻¹ | 32 min | H2aM7780N (antibody, mouse IgG2a, V domains shown, also called H2M7780N) VH: QVQLVESGGGVVQSGRSLRLSCAASGFTFSSYGMHWVRQAPGKGLEWVAVIWYDGSNIYYSDSVKGRFTISRANSKNTLYLQMNSLRAEDTAVYYCARPGHWNYFFEYWGQGTLVTVSS VL: DIQMTQSPSSLSASVGDRVTITCRASQSINNYLNWYQQKPGKAPKLLIYTASSLQSGVPSRFSGSGSGTDFTLTISSLQPEDFATYYCQQSYSTPPLTFGQGTQLEIK | 
2.1 nM | 5.31e-05 s⁻¹ | 25300 M⁻¹ s⁻¹ | 218 min | H1M7789N (antibody, mouse IgG1, V domains shown, Human variable domains, mouse IgG1 Fc (H1M prefix)) VH: EVQLLESGGGLVQPGGSLRLSCSASGFTFSSYTMNWVRQAPGKGLEWVSGISDTGGNTYYTDSVKGRFTVSRDNSKNTLSLQMNSLRAEDTAVYYCAKDQGGSYPYYFHYWGQGSLVTVSS VL: DIQMTQSPSSLSASVGDRVTITCRASQSISSYLIWYQQKPGTAPKFLIYAASSLQSGVPSRFSGCGSGTDFTLTISSLQPEDFATYYCQQSYSTPPITFGQGTRLEIK | 
 |  |  |  | H2aM7780N (antibody, mouse IgG2a, V domains shown, Human variable regions, mouse IgG2a Fc (H2aM prefix); also called H2M7780N) VH: QVQLVESGGGVVQSGRSLRLSCAASGFTFSSYGMHWVRQAPGKGLEWVAVIWYDGSNIYYSDSVKGRFTISRANSKNTLYLQMNSLRAEDTAVYYCARPGHWNYFFEYWGQGTLVTVSS VL: DIQMTQSPSSLSASVGDRVTITCRASQSINNYLNWYQQKPGKAPKLLIYTASSLQSGVPSRFSGSGSGTDFTLTISSLQPEDFATYYCQQSYSTPPLTFGQGTQLEIK | Kd [2]: 55.8 nM; koff [2]: 0.00152 s⁻¹; kon [2]: 27200 M⁻¹ s⁻¹; t½ [2]: 7.6 min; Kd [6]: 60.5 nM; koff [6]: 0.00138 s⁻¹; kon [6]: 22900 M⁻¹ s⁻¹; t½ [6]: 8.3 min; Kd [3]: 0.236 nM; koff [3]: 9.94e-06 s⁻¹; kon [3]: 42100 M⁻¹ s⁻¹; t½ [3]: 1160 min; Kd [4]: 31.5 nM; koff [4]: 0.000315 s⁻¹; kon [4]: 10000 M⁻¹ s⁻¹; t½ [4]: 37 min; Kd [5]: 0.23 nM; koff [5]: 2.29e-05 s⁻¹; kon [5]: 99400 M⁻¹ s⁻¹; t½ [5]: 505 min
19.6 nM | 0.000388 s⁻¹ | 19700 M⁻¹ s⁻¹ | 30 min | H2aM7788N (antibody, mouse IgG2a, V domains shown, Human variable domains, mouse IgG2a Fc; also called H2M7788N) VH: EVQLVESGGGLVQPGGSLRLSCGASGFTFRNYDMHWVRQITGKGLEWVSAIGSAGDTYYPDSVKGRFTISRENAKNSLYLQMNSLRVGDTAVYYCTRDIHCSSTRCYGMDVWGQGTTVTVSS VL: not shown | 
38 nM | 0.00212 s⁻¹ | 55000 M⁻¹ s⁻¹ | 5.4 min | H2aM7794N (antibody, V domains shown, Human variable domains, mouse IgG2a Fc; also called H2M7794N) VH: QLQLQESGPDLVKPSDTLSLTCTVSDDSISSTTYYWAWIRQPPGKGLEWIGSMSYNGNNYYNPSLKSRVAISAGTSQKQFSLKLTSVTAADTAVYHCARHLGYNGNWYPFDFWGQGILVTVSS VL: not shown | 
10.9 nM | 0.000795 s⁻¹ | 73200 M⁻¹ s⁻¹ | 15 min | H4xH9037P (antibody, human IgG4, V domains shown, H4xH: modified human IgG4 Fc; also called H4xH9037P2) VH: EVQLVESGGGLVQPGGSLRLSCAASGFTFDDYAMHWVRQAPGKGLEWVSGIGWSSGSIGYADSVKGRFTISRDNAKNSLYLQMDSLRPEDSALYYCAKAYTFMITLYFDYWGQGTLVTVSS VL: not shown | 
23.4 nM | 0.000706 s⁻¹ | 30100 M⁻¹ s⁻¹ | 16 min | H2aM7791N (antibody, mouse IgG2a, V domains shown, Human variable domains, mouse IgG2a Fc; also called H2M7791N) VH: QMQLQQWGAGLLKPSETLSLTCVVYGGSLNGYYWSWIRQSPGKGLEWIGEIDHSGSTNYNPSLKNRVTMSVDTSKIQFSLKLTSVTVADTAVYYCAREGLLPFDYWGQGTLVTVSS VL: EIVLTQSPGTLSLSPGERVTLSCRASQSVYSNYLAWYQQNPGQAPRLLIYAASNRATGIPDRFSGSGSGTDFTLTISRLEPEDFAVYYCHQYATSPWTFGQGTKVEIK | 
39.4 nM |  |  |  | H4H9019P (antibody, human IgG4, V domains shown, Fully human, human IgG4 Fc (H4H prefix)) VH: EVQLVESGGGVVRPGGSLRLSCAASGFTFDDYGMSWVRQVPGKGLEWVSGISWNDGKTVYAESVKGRFIISRDNAKNSLYLEMNSLRAEDTALYYCARDWQYLIERYFDYWGQGTLVTVSS VL: not shown | 
4.62 nM | 0.000475 s⁻¹ | 103000 M⁻¹ s⁻¹ | 24 min | H4xH9035P (antibody, human IgG4, V domains shown, H4xH: modified human IgG4 Fc; also called H4xH9035P2) VH: EVQLVESGGRVVRPGGSLRLSCAASGFTFDDYGMSWVRQLPGKGLEWVAGISWNDGKTVYAESVKGRFIISRDNAKNSLHLEMNSLRAEDTALYYCARDWQYLIDRYFDFWGQGTLVTVSS VL: not shown | 
23.3 nM | 0.00148 s⁻¹ | 63500 M⁻¹ s⁻¹ | 8 min | H4H7795N2 (antibody, human IgG4 S228P, kappa, V domains shown) VH: EVQVVESGGGLVEPGRSLRLSCKASGFTFDDYAMHWVRQTPGKALEWVSGISWSGNNIGYADSVKGRFTISKDDAKNSLYLQMNSLRPEDTALYYCTKDISITGTLDAFDVWGQGTMVTVSS VL: DIQMTQSPISVSASVGDRVTITCRASQGISNWLAWYQQKPGIAPKLLIYSASSLQSGVPSRFRGSGSGTDFTLTIGSLQPEDFATYYCQQAHSFPLTFGGGTKVEIKR | 
23.5 nM | 0.00115 s⁻¹ | 49100 M⁻¹ s⁻¹ | 10 min | H2aM7795N (antibody, mouse IgG2a, V domains shown, Human variable domains, mouse IgG2a Fc; also called H2M7795N) VH: EVQVVESGGGLVEPGRSLRLSCKASGFTFDDYAMHWVRQTPGKALEWVSGINWSGNNIGYADSVKGRFTISKDDAKNSLYLQMNSLRPEDTALYYCTKDISITGTLDAFDVWGQGTMVTVSS VL: DIQMTQSPISVSASVGDRVTITCRASQGISNWLAWYQQKPGIAPKLLIYSASSLQSGVPSRFRGSGSGTDFTLTIGSLQPEDFATYYCQQAHSFPLTFGGGTKVEIK | 
